The source of these data is paper PMC3076715.

Read-outs that look alike come from different tables or passages of the source.

Holding throughout (experiment): fluorescence polarization
One data set deals with M.SssI (UniProt P15840 1-386).
Data set [1] has as its target T1, Dnmt3a-CD (murine, UniProt O88508 608-908).
Data set [2] addresses T1, Dnmt3a-CD. The source holds these as a separate data set.
In data set [3] the target is T1, Dnmt3a-CD. The source holds these as a separate data set.

T1 sequence (O88508 608-908): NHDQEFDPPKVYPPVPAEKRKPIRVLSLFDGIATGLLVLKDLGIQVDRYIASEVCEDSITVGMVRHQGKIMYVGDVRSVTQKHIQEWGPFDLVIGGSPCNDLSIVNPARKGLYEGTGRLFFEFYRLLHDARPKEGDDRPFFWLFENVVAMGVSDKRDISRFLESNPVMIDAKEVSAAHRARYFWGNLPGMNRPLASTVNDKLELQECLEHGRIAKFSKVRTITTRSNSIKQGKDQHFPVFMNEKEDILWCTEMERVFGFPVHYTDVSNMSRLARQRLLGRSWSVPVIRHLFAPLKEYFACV
M.SssI, sequence (P15840 whole entry): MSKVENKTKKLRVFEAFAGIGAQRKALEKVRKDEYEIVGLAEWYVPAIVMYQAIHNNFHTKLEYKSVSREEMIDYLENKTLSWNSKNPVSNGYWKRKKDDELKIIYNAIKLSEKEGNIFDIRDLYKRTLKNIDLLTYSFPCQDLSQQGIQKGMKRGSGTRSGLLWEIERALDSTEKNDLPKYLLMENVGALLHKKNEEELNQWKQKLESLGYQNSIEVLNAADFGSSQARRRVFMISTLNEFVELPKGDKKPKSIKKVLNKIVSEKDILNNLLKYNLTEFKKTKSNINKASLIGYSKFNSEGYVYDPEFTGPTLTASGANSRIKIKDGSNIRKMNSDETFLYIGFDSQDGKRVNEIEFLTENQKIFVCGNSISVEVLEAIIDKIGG

B1: GCGC/CGCG (dsDNA)
DNA 1: GAGCCAAGCGCACTCTGA
DNA 2: TCAGAGTGCGCTTGGCTC
As to B1, the binding result with M.SssI and with Dnmt3a-CD [1] was “binds” in each case.

B2: GCB+C/CGCG (dsDNA)
DNA 1: GAGCCAAGCGCACTCTGA
DNA 2: TCAGAGTGCGCTTGGCTC
modifications: (+)-trans-anti-B[a]PDE-N2-dG at strand 1 position 10
For the molecule B2, the binding result in the data set with Dnmt3a-CD [2] was “binds”.

B3: GCGC/CGMG (dsDNA)
DNA 1: GAGCCAAGCGCACTCTGA
DNA 2: TCAGAGTGCGCTTGGCTC
modifications: 5-methylcytosine at strand 2 position 9
In the case of B3, in the data set with Dnmt3a-CD [3], the binding result is on record as “binds”.
